Columns and labels:
[1] = biological target: T1, ubiquitin (whether His-tagged or not is not told for the experiment) (UniProt P0CG48 1-76); test: other fluorescence titration + ITC; 25 °C; ubiquitin stock titrated into the SH3 domain; ITC in 20 mM cacodylate, pH 6.0, about 50 µM SH3 in the cell and about 800 µM ubiquitin; intrinsic tryptophan fluorescence (excitation 298 nm), apparent affinities; model of a single set of identical sites; settings: both partners purified
T1 construct: ubiquitin, the 76-residue cut product (residues up to Gly76 are named); The methods list His-tagged and non His-tagged ubiquitin; It may carry the C-terminal His tag of m6; 15N- or 13C,15N-labelled in some NMR experiments; source: purchased from Spectra Isotopes or obtained as described in [12]; [18]

[2] = biological target: T1, ubiquitin (whether His-tagged or not is …); test: NMR titration; unlabelled SH3 domain titrated into 0.25 mM 15N-ubiquitin; 1H-15N HSQC chemical shift perturbation; 25 °C; 50 mM NaPi, 1 mM DTT, pH 6.0; settings: both partners purified

B1: CD2AP F324Y SH3-C (domain or fragment)
chain: AKEYCRTLFPYTGTNEDELTFREGEIIHLISKETGEAGWWKGELNGKEGVFPDNYAVQIS
notes: CD2AP third SH3 domain (SH3-C) with F324Y; Site-directed mutagenesis (QuikChange) of the WT construct m3; also called SH3-C F324Y mutant; F324Y CD2AP SH3-C; source: E. coli BL21/DE3, purified like the WT CD2AP SH3-C
[1]
  Kd: 24 ± 3 µM

B2: CD2AP SH3-C T283A mutant (domain or fragment)
chain: AKEYCRTLFPYTGANEDELTFREGEIIHLISKETGEAGWWKGELNGKEGVFPDNFAVQIS
notes: CD2AP third SH3 domain (SH3-C) with T283A (RT loop); Mutant of m3; source: purchased from Topgene and expressed as the WT domains; purified
[2]
  binding result: binds

B3: CIN85 F322Y SH3-C (domain or fragment, UniProt Q96B97 270-328, looked up)
chain: DYCKVIFPYEAQNDDELTIKEGDIVTLINKDCIDVGWWEGELNGRRGVFPDNYVKLLPP
notes: CIN85 third SH3 domain (SH3-C) with F322Y; limits as the WT construct CIN85-SH3C(270-328)His6; Site-directed mutagenesis (QuikChange) of the WT construct m4; also called CIN85 SH3-C F322Y mutant; CIN85 F322Y SH3-C mutant; source: E. coli BL21/DE3, purified like the WT CIN85 SH3-C
[2]
  binding result: binds

Source: article PMC3770644 (PLoS ONE, 2013)
